Results reported in PMC11254670, “Soluble CD72, is a T-cell activator probably via binding to CD6 in homeostasis and autoimmunity” (Frontiers in Immunology, 2024).

Target: T1, CD6 (human (endogenous in CD4+ T cells), UniProt P30203 18-668)
T1 sequence (looked up): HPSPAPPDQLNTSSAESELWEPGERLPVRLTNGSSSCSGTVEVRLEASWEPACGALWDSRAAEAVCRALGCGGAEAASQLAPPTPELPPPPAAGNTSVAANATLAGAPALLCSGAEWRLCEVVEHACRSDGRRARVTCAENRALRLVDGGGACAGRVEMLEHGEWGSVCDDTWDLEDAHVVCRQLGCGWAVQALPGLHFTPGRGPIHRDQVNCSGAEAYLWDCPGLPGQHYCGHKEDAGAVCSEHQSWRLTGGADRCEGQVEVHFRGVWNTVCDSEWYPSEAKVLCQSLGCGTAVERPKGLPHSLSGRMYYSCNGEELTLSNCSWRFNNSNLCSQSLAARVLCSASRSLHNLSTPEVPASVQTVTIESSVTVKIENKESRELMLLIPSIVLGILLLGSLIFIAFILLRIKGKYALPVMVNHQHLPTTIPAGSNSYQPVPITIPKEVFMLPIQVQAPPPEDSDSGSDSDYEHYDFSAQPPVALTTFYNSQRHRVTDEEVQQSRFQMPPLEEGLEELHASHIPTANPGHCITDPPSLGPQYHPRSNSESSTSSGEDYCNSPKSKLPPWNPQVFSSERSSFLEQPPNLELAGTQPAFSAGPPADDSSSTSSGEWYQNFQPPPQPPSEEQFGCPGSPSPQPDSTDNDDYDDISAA
Experiment: cell-based or functional assay

- phosphorylation of SLP-76 (Ser376), phospho/total ratio by western blot, activated CD4+ T cells stimulated with 2 ug/ml sCD72 against control: ~2 fold
B1: soluble CD72 (extracellular part of human CD72, amino acids 117-359, V5 and 8xHis tagged) (domain or fragment, UniProt P21854 117-359, looked up)
chain: RYLQVSQQLQQTNRVLEVTNSSLRQQLRLKITQLGQSAEDLQGSRRELAQSQEALQVEQRAHQAAEGQLQACQADRQKTKETLQSEEQQRRALEQKLSNMENRLKPFFTCGSADTCCPSGWIMHQKSCFYISLTSKNWQESQKQCETLSSKLATFSEIYPQSHSYYFLNSLLPNGGSGNSYWTGLSSNKDWKLTDDTQRTRTYAQSSKCNKVHKTWSWWTLESESCRSSLPYICEMTAFRFPD
